Results on 44 molecules are retold here after US11155602B2, “Polypeptides targeting HIV fusion” (priority 2015, dated 2021).

For orientation: EC50 means the concentration needed to bring the measured effect to its halfway point.

B1: 428 (protein)
chain: MGHHHHHHTSGVSDVPRDLEVVAATPTSLLISWDAPAVTVGWYHIGYNVEGEPASYQYFRVPGSKSTATISGLKPGVEYMIFVNAVTGSGAREEFSLPISINYRTEIDGGGGSGGGGSGGGGSGGGGSEYEARIEALIRAAQEQQEKNEAALRELDKWTGVWGNYEKV
modifications: Anti-N17 Adnectin - HIV fusion peptide inhibitor Combinectin
B2: 411 (protein)
chain: MGHHHHHHGGSVSDVPRDLEVVAATPTSLLISWEYKVNAYRYYRITYGETGGNSPVQEFTVPSVLSTATISGLKPGVDYTITVYAVTYGVDSDPISINYRTEIDGGGGSGGGGSGGGGSGGGGTIAEYAARIEALIRAAQEQQEKNEAALRELYKWAS
modifications: Anti-N17 Adnectin - HIV fusion peptide inhibitor Combinectin
B3: 137 (protein)
chain: MGVSDVPRDLEVVAATPTSLLISWHDGIGEERYYRITYGETGGNSPVQEFTVPMDDITATISGLKPGVDYTITVYAVTVGDVISVLHEPISINYRTEIDKPSQHHHHHH
modifications: Adnectin
B4: 323 (protein)
chain: MGHHHHHHGGSVSDVPRDLEVVAATPTSLLISWEYKVHPYRYYRITYGETGGNSPVQEFTVPSVLSTATISGLKPGVDYTITVYAVTYGDQSAPISINYRTEID
modifications: Adnectin
B5: 325 (protein)
chain: B4 chain with H38N, P39H, Y40D, Q91D
modifications: Adnectin
B6: 330 (protein)
chain: B4 chain with Q91D, A93P
modifications: Adnectin
B7: 346 (protein)
chain: B4 chain with Q91D, N98Q
modifications: Adnectin
B8: 332 (protein)
chain: B4 chain with H38N, P39R, Y40W, Q91D
modifications: Adnectin
B9: 359 (protein)
chain: B4 chain with H38S, P39A, Q91D
modifications: Adnectin
B10: 356 (protein)
chain: B4 chain with T69E, I70L, Q91D
modifications: Adnectin
B11: 341 (protein)
chain: B4 chain with E58S, Q91D
modifications: Adnectin
B12: 335 (protein)
chain: B4 chain with Q91E
modifications: Adnectin
B13: 327 (protein)
chain: B4 chain with H38T, P39Y, Y40E, Q91D
modifications: Adnectin
B14: 326 (protein)
chain: B4 chain with H38S, P39H, Y40R, Q91D
modifications: Adnectin
B15: 333 (protein)
chain: B4 chain with H38S, Y40W, Q91D
modifications: Adnectin
B16: 135 (protein)
chain: B4 chain with E34K, K36N, H38N, P39A, D90V, Q91H, A93S
modifications: Adnectin
B17: 347 (protein)
chain: B4 chain with H38N, P39Y, Y40R, Q91D
modifications: Adnectin
B18: 342 (protein)
chain: B4 chain with D90I, Q91D
modifications: Adnectin
B19: 357 (protein)
chain: B4 chain with Q91L
modifications: Adnectin
B20: 352 (protein)
chain: B4 chain with Q91L
modifications: Adnectin
B21: 360 (protein)
chain: B4 chain with H38T, P39G, Q91D
modifications: Adnectin
B22: 339 (protein)
chain: B4 chain with H38S, P39R, Y40W, Q91D
modifications: Adnectin
B23: 349 (protein)
chain: B4 chain with H38Y, P39A, Q91D
modifications: Adnectin
B24: 361 (protein)
chain: B4 chain with H38Y, P39H, Y40G, Q91D
modifications: Adnectin
B25: 362 (protein)
chain: B4 chain with T69K, I70L, Q91D
modifications: Adnectin
B26: 345 (protein)
chain: B4 chain with Q91D, A93R
modifications: Adnectin
B27: 343 (protein)
chain: B4 chain with Q91H
modifications: Adnectin
B28: 324 (protein)
chain: B4 chain with Q91D, A93N
modifications: Adnectin
B29: 337 (protein)
chain: B4 chain with Q91D, A93Y
modifications: Adnectin
B30: 344 (protein)
chain: B4 chain with Q91D, A93E
modifications: Adnectin
B31: 353 (protein)
chain: B4 chain with Q91D, A93G
modifications: Adnectin
B32: 334 (protein)
chain: B4 chain with H38T, P39Y, Y40R, Q91D
modifications: Adnectin
B33: 354 (protein)
chain: B4 chain with H38S, P39A, Y40W, Q91D
modifications: Adnectin
B34: 355 (protein)
chain: B4 chain with H38S, P39T, Q91D
modifications: Adnectin
B35: 338 (protein)
chain: B4 chain with H38N, P39R, Q91D
modifications: Adnectin
B36: 351 (protein)
chain: B4 chain with E58A, D90K, Q91D
modifications: Adnectin
B37: 350 (protein)
chain: B4 chain with E58T, Q91D
modifications: Adnectin
B38: 348 (protein)
chain: B4 chain with H38S, P39T, Y40W, Q91D
modifications: Adnectin
B39: 329 (protein)
chain: B4 chain with Q91V
modifications: Adnectin
B40: 336 (protein)
chain: B4 chain with Q91D, A93D
modifications: Adnectin
B41: 363 (protein)
chain: B4 chain with D90N, Q91D
modifications: Adnectin
B42: 358 (protein)
chain: B4 chain with Q91D, A93T
modifications: Adnectin
B43: 136 (protein)
chain: MGHHHHHHGGSVSDVPRDLEVVAATPTSLLISWDAPAVTVEQYYIGYYVEAEPSSYQYFFVPGSKSTATISGLKPGVDYAIFVNAVTASGRGPEYSLPISINYRTEGS
modifications: Adnectin
B44: 138 (protein)
chain: MGVSDVPRDLEVVAATPTSLLISWHYPFEGYVTYYRITYGETGGNSHVQEFTVPVGYTTATISGLKPGVDYTITVYAVTSSKGYVYFPISINYRTEIDKPSQHHHHHH
modifications: Adnectin

Changes are numbered by the printed parent chain.

The first assay concerns NL-Rluc virus. Briefly: Combinectin potency assay: antiviral EC50, NL-Rluc virus in MT-2 cells, luciferase readout. The class given is cell-based, HIV-1. The settings on record: Anti-N17 Adnectin - HIV fusion peptide inhibitor Combinectin, Table 4. The essentials: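 Peptides, serially diluted threefold over 11 points in triplicate, were exposed for 4–5 days to MT-2 cells preinfected 1 h with NL-Rluc virus (MOI 0.01). Replication read out as Renilla luciferase signal, with EC50 derived against untreated infected controls.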
In the case of B1, the EC50 was found to be 50 nM.

Consider B2, for which the half-maximal effective concentration (EC50) was determined as 4340 nM.

Still in this assay, the particulars now being: Anti-N17 Adnectin, Table 3.
As for B3, the EC50 is 80 nM.

With B4, the EC50 came to 126 nM.

For B5, the EC50 was more than 1000 nM.

Regarding B6, the EC50 turned out to be 99 nM.

Consider B7, for which the EC50 came to 83 nM.

For B8, the 50% effective concentration (EC50) was more than 1000 nM.

On to B9, for which the EC50 was more than 1000 nM.

As for B10, the EC50 came out at 31 nM.

For the molecule B11, the concentration for a half-maximal effect (EC50) is more than 1000 nM.

For B12, the 50% effective concentration (EC50) is 112 nM.

Take B13: the EC50 was more than 1000 nM.

Consider B14, for which the EC50 is more than 1000 nM.

For the molecule B15, the half-maximal effective concentration (EC50) was more than 1000 nM.

For the molecule B16, the 50% effective concentration (EC50) was more than 1000 nM.

With B17, the concentration giving a half-maximal response (EC50) was more than 1000 nM.

Regarding B18, the EC50 is more than 1000 nM.

B19: the EC50 stood at 178 nM.

B20: the half-maximal effective concentration (EC50) came to 77 nM.

For the molecule B21, the concentration giving a half-maximal response (EC50) is more than 1000 nM.

Turning to B22, the EC50 is more than 1000 nM.

Regarding B23, the EC50 was more than 1000 nM.

For the molecule B24, the EC50 was more than 1000 nM.

As for B25, the EC50 was 121 nM.

Regarding B26, the EC50 is more than 1000 nM.

On to B27, for which the 50% effective concentration (EC50) was determined as 122 nM.

For the molecule B28, the EC50 was 487 nM.

On to B29, for which the 50% effective concentration (EC50) was more than 1000 nM.

For B30, the 50% effective concentration (EC50) was more than 1000 nM.

B31: the concentration giving a half-maximal response (EC50) came to 19 nM.

As for B32, the EC50 is more than 1000 nM.

As to B33, the EC50 is more than 1000 nM.

Regarding B34, the EC50 is more than 1000 nM.

As for B35, the concentration for a half-maximal effect (EC50) was more than 1000 nM.

Regarding B36, the 50% effective concentration (EC50) was 215 nM.

In the case of B37, the concentration for a half-maximal effect (EC50) turned out to be 191 nM.

Regarding B38, the EC50 was more than 1000 nM.

B39: the EC50 worked out at 102 nM.

Regarding B40, the half-maximal effective concentration (EC50) came out at 171 nM.

On to B41, for which the EC50 was 130 nM.

As for B42, the EC50 was more than 1000 nM.

With B43, the concentration giving a half-maximal response (EC50) worked out at 5 nM.

On to B44, for which the EC50 amounted to 3300 nM.
